In patent US20170081400A1 (CEPHALON, published 2017):

T1: human TL1A extracellular domain with N-terminal HIS and FLAG tag (human) (UniProt O95150)
T1 sequence: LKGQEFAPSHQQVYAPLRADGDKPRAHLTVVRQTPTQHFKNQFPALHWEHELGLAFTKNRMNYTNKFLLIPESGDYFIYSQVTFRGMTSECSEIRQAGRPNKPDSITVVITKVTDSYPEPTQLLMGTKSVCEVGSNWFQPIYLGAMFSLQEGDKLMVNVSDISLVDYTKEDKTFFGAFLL

T2: human TL1A extracellular domain with N-terminal HIS and FLAG tag (human, UniProt O95150 72-251)
T2 construct: whole entry named. ~70 kDa fraction purified by gel filtration
T2 sequence: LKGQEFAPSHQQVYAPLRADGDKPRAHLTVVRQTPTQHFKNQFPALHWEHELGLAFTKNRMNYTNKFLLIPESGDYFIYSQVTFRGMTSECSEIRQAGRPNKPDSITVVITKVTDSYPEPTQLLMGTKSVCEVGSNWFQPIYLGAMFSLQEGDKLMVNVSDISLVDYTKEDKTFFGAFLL

T3: human TL1A extracellular domain with N-terminal HIS and FLAG tag (human, UniProt O95150 72-251)
T3 sequence: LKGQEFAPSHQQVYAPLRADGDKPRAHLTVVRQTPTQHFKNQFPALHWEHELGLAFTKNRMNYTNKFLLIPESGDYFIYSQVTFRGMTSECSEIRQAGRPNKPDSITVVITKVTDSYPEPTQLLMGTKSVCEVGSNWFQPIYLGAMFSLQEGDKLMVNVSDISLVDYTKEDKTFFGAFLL


Legend:
[1] = target: T1, human TL1A extracellular domain with N-terminal HIS and FLAG tag (human); test: cell-based or functional assay
[2] = target: T2, human TL1A extracellular domain with …; test: SPR run 2; supernatant on Protein A; TL1A 10 ug/mL; timepoint 44
Method in brief: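 The capture level was the response change at the end of loading, which varied by run. Antigen response was read before dissociation ended, double-referenced against a reference flow cell and a buffer blank.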

[3] = target: T2, human TL1A extracellular domain with …; test: SPR run 2; supernatant on Protein A; TL1A 10 ug/mL; timepoint 220
Method in brief: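 CM5 chip, amine-coupled Protein A; capture of supernatant or purified Ab (load varies per run); capture level = ΔRU at end of injection; binding RU read late in dissociation; double referencing (reference cell + buffer blank).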

[4] = target: T2, human TL1A extracellular domain with …; test: SPR run 2; purified antibody on Protein A; TL1A 10 ug/mL; timepoint 44
Excerpt: (§1) 1.5. Antibody expression and antigen binding as determined by SPR. Using a CM5 sensor chip (GE Healthcare) Protein A (Pierce) was coupled to the chip surface using an amine coupling kit (GE Healthcare). Protein A was coupled on flow cell 1 and 2 (or alternatively 3 and 4) using a BIACORE® T200. […] The amount of supernatant or purified protein (as well as the concentration) injected during the capture stage varied between runs and is specified in the header of the Tables 3-11. At the end of injection of the supernatant or purified antibody the change in response units was measured. This value was reported as Capture Level in Tables 3-11. […] The response units were measured prior to the end of the dissociation phase. […] The sensorgrams were double referenced (flow cell 2 is subtracted from flow cell 1 and a buffer blank). As there were a large number of antibody variants to screen, these were screened across different runs (Tables 3-11). […] A summary of the conditions used in each run is below:
(§2) 2.1. […] In some experiment the antibodies were purified using Protein A chromatography (See 1.4) and purified antibodies were used in BIACORE® (GE Healthcare) experiments.

[5] = target: T2, human TL1A extracellular domain with …; test: SPR run 2; purified antibody on Protein A; TL1A 10 ug/mL; timepoint 590
Excerpt: as §1, §2

[6] = target: T3, human TL1A extracellular domain with …; test: cell-based or functional assay
[7] = target: T3, human TL1A extracellular domain with …; test: SPR Run 8, antibody on Protein A, TL1A 5 ug/mL, timepoint 44
Excerpt: as §1, §2

[8] = target: T3, human TL1A extracellular domain with …; test: SPR Run 8, antibody on Protein A, TL1A 5 ug/mL, timepoint 590
Excerpt: as §1, §2

Row | Binder | Antibody IC50, TL1A induced caspase potency assay in TF-1 cells [1] [ng/mL] | Fold improvement over 320-179, TL1A induced caspase potency assay in TF-1 cells [1] [fold] | TL1A Binding Level (Early) [2] [RU] | TL1A Binding Level (Late) [3] [RU] | TL1A Binding Level (Early) [4] [RU] | TL1A Binding Level (Late) [5] [RU] | Antibody IC50, TL1A induced caspase potency assay in TF-1 cells [6] [ng/mL] | Fold improvement over 320-179, TL1A induced caspase potency assay in TF-1 cells [6] [fold] | TL1A Binding Level (Early) [7] [RU] | TL1A Binding Level (Late) [8] [RU]
1 | 320-201 (antibody, human IgG1, name in Kabat numbering, V domains shown, human IgG1, lambda) VH: QVQLVQSGAEVKKPGASVKVSCKASGYTFTSYDINWVRQAPGQGLEWMGWLNPNSGNTGYAQKFQGRVTMTADRSTSTAYMELSSLRSEDTAVYYCAREVPETAAFEYWGQGTLVTVSS VL: QSVLTQPPSVSGAPGQRVTISCTASSSDIGAGLGVHWYQQLPGTAPKLLIEGYYNRPSGVPDRFSGSKSGTSASLTITGLLPEDEGDYYCQSYDGTLSALFGGGTKLTVLG | 5 | 2 | 274 | 252 | 73 | 57 |  |  |  | 
2 | 320-586 (antibody, human IgG1, name in Kabat numbering, V domains shown, full-length human IgG1, lambda) VH: QVQLVQSGAEVKKPGASVKVSCKASGYTFTSYDINWVRQAPGQGLEWMGWLNPNSGNTGYAQKFQGRVTMTADRSTSTAYMELSSLRSEDTAVYYCAREVPETAAFEYWGQGTLVTVSS VL: QSVLTQPPSVSGAPGQRVTISCTSSSSDIGAGLGVLWYQQLPGTAPKLLIEGYYNRPSGVPDRFSGSKSGTSASLTITGLLPEDEGDYYCQSWDGTLSALFGGGTKLTVLG |  |  |  |  |  |  | 2 | 25 | 108 | 103
3 | 320-221 (antibody, human IgG1, name in Kabat numbering, V domains shown, human IgG1, lambda) VH: QVQLVQSGAEVKKPGASVKVSCKASGYTFTSYDINWVRQAPGQGLEWMGWLNPNSGNTGYAQKFQGRVTMTADRSTSTAYMELSSLRSEDTAVYYCAREVPETAAFEYWGQGTLVTVSS VL: QSVLTQPPSVSGAPGQRVTISCTSSKSDIGAGLGVHWYQQLPGTAPKLLIEGYYNRPSGVPDRFSGSKSGTSASLTITGLLPEDEGDYYCQSYDGTLSALFGGGTKLTVLG |  |  | 225 | 207 | 99 | 89 |  |  |  | 
4 | 320-205 (antibody, human IgG1, name in Kabat numbering, V domains shown, human IgG1, lambda) VH: QVQLVQSGAEVKKPGASVKVSCKASGYTFTSYDINWVRQAPGQGLEWMGWLNPNSGNTGYAQKFQGRVTMTADRSTSTAYMELSSLRSEDTAVYYCAREVPETAAFEYWGQGTLVTVSS VL: QSVLTQPPSVSGAPGQRVTISCTKSSSDIGAGLGVHWYQQLPGTAPKLLIEGYYNRPSGVPDRFSGSKSGTSASLTITGLLPEDEGDYYCQSYDGTLSALFGGGTKLTVLG | 20 | 2 | 290 | 271 | 70 | 51 |  |  |  | 
5 | 320-583 (antibody, human IgG1, name in Kabat numbering, V domains shown, full-length human IgG1, lambda) VH: QVQLVQSGAEVKKPGASVKVSCKASGYTFTSYDINWVRQAPGQGLEWMGWLNPNSGNTGYAQKFQGRVTMTADRSTSTAYMELSSLRSEDTAVYYCAREVPETAAFEYWGQGTLVTVSS VL: QSVLTQPPSVSGAPGQRVTISCTSSSSDIGAALGVHWYQQLPGTAPKLLIEGYYNRPSGVPDRFSGSKSGTSASLTITGLLPEDEGDYYCQSWDGTLSALFGGGTKLTVLG |  |  |  |  |  |  | 3 | 27 | 108 | 103
6 | 320-584 (antibody, human IgG1, name in Kabat numbering, V domains shown, full-length human IgG1, lambda) VH: QVQLVQSGAEVKKPGASVKVSCKASGYTFTSYDINWVRQAPGQGLEWMGWLNPNSGNTGYAQKFQGRVTMTADRSTSTAYMELSSLRSEDTAVYYCAREVPETAAFEYWGQGTLVTVSS VL: QSVLTQPPSVSGAPGQRVTISCTSSSSDIGAGSGVHWYQQLPGTAPKLLIEGYYNRPSGVPDRFSGSKSGTSASLTITGLLPEDEGDYYCQSWDGTLSALFGGGTKLTVLG |  |  |  |  |  |  | 8 | 10 | 103 | 98
7 | 320-585 (antibody, human IgG1, name in Kabat numbering, V domains shown, full-length human IgG1, lambda) VH: QVQLVQSGAEVKKPGASVKVSCKASGYTFTSYDINWVRQAPGQGLEWMGWLNPNSGNTGYAQKFQGRVTMTADRSTSTAYMELSSLRSEDTAVYYCAREVPETAAFEYWGQGTLVTVSS VL: QSVLTQPPSVSGAPGQRVTISCTSSSSDIGAGQGVHWYQQLPGTAPKLLIEGYYNRPSGVPDRFSGSKSGTSASLTITGLLPEDEGDYYCQSWDGTLSALFGGGTKLTVLG |  |  |  |  |  |  | 3 | 13 | 116 | 109
8 | 320-211 (antibody, human IgG1, name in Kabat numbering, V domains shown, human IgG1, lambda) VH: QVQLVQSGAEVKKPGASVKVSCKASGYTFTSYDINWVRQAPGQGLEWMGWLNPNSGNTGYAQKFQGRVTMTADRSTSTAYMELSSLRSEDTAVYYCAREVPETAAFEYWGQGTLVTVSS VL: QSVLTQPPSVSGAPGQRVTISCTSDSSDIGAGLGVHWYQQLPGTAPKLLIEGYYNRPSGVPDRFSGSKSGTSASLTITGLLPEDEGDYYCQSYDGTLSALFGGGTKLTVLG | 10 | 3 | 206 | 164 | 80 | 64 |  |  |  | 
9 | 320-233 (antibody, human IgG1, name in Kabat numbering, V domains shown, human IgG1, lambda) VH: QVQLVQSGAEVKKPGASVKVSCKASGYTFTSYDINWVRQAPGQGLEWMGWLNPNSGNTGYAQKFQGRVTMTADRSTSTAYMELSSLRSEDTAVYYCAREVPETAAFEYWGQGTLVTVSS VL: QSVLTQPPSVSGAPGQRVTISCTSSSSAIGAGLGVHWYQQLPGTAPKLLIEGYYNRPSGVPDRFSGSKSGTSASLTITGLLPEDEGDYYCQSYDGTLSALFGGGTKLTVLG |  |  | 255 | 235 | 48 | 16 |  |  |  | 
10 | 320-237 (antibody, human IgG1, name in Kabat numbering, V domains shown, human IgG1, lambda) VH: QVQLVQSGAEVKKPGASVKVSCKASGYTFTSYDINWVRQAPGQGLEWMGWLNPNSGNTGYAQKFQGRVTMTADRSTSTAYMELSSLRSEDTAVYYCAREVPETAAFEYWGQGTLVTVSS VL: QSVLTQPPSVSGAPGQRVTISCTSSSSKIGAGLGVHWYQQLPGTAPKLLIEGYYNRPSGVPDRFSGSKSGTSASLTITGLLPEDEGDYYCQSYDGTLSALFGGGTKLTVLG |  |  | 240 | 221 | 10 | 8 |  |  |  | 
11 | 320-236 (antibody, human IgG1, name in Kabat numbering, V domains shown, human IgG1, lambda) VH: QVQLVQSGAEVKKPGASVKVSCKASGYTFTSYDINWVRQAPGQGLEWMGWLNPNSGNTGYAQKFQGRVTMTADRSTSTAYMELSSLRSEDTAVYYCAREVPETAAFEYWGQGTLVTVSS VL: QSVLTQPPSVSGAPGQRVTISCTSSSSHIGAGLGVHWYQQLPGTAPKLLIEGYYNRPSGVPDRFSGSKSGTSASLTITGLLPEDEGDYYCQSYDGTLSALFGGGTKLTVLG |  |  | 254 | 232 | 5 | 6 |  |  |  | 
12 | 320-213 (antibody, human IgG1, name in Kabat numbering, V domains shown, human IgG1, lambda) VH: QVQLVQSGAEVKKPGASVKVSCKASGYTFTSYDINWVRQAPGQGLEWMGWLNPNSGNTGYAQKFQGRVTMTADRSTSTAYMELSSLRSEDTAVYYCAREVPETAAFEYWGQGTLVTVSS VL: QSVLTQPPSVSGAPGQRVTISCTSKSSDIGAGLGVHWYQQLPGTAPKLLIEGYYNRPSGVPDRFSGSKSGTSASLTITGLLPEDEGDYYCQSYDGTLSALFGGGTKLTVLG | 70 | 0 | 218 | 194 | 79 | 65 |  |  |  | 
